# T1: LRP6 (low-density lipoprotein receptor-related protein 6) (UniProt O75581 20-1370, limits assumed)
# T1 sequence (looked up): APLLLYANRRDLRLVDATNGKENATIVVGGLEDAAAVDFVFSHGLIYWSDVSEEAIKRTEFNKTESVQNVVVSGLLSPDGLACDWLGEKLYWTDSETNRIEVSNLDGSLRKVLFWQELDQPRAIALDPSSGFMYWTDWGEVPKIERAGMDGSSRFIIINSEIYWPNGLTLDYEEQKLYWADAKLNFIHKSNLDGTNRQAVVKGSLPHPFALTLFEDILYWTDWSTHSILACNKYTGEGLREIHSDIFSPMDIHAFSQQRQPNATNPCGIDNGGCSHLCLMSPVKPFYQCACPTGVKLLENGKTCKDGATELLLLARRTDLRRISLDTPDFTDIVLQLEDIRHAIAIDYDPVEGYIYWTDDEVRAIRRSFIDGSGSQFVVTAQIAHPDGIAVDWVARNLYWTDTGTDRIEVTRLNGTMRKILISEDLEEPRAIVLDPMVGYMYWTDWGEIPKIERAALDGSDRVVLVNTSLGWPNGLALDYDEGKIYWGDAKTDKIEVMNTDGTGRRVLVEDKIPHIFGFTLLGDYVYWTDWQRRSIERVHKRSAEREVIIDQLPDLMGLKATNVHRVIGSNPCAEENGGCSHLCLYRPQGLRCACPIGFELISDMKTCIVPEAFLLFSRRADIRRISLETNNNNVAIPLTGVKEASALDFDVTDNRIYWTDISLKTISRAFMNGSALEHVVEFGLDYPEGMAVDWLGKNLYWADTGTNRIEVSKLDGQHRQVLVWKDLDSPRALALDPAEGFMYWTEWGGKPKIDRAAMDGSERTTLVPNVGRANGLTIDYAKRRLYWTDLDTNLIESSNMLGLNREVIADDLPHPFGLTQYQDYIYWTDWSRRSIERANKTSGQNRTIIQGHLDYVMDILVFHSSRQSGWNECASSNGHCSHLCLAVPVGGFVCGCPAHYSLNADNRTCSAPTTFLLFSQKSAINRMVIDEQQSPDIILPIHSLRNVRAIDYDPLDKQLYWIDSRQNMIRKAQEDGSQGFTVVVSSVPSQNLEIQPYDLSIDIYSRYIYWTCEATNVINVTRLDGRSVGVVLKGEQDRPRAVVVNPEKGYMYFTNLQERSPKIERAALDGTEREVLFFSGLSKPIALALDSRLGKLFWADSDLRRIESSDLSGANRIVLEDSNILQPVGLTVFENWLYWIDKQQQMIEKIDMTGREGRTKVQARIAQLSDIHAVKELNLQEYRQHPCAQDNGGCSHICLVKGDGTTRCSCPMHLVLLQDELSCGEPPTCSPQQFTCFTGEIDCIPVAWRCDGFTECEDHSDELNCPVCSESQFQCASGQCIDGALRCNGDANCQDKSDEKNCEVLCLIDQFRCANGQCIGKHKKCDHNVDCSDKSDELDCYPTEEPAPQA
# Biological target: T1, LRP6 (low-density lipoprotein …)
# Test: cell-based or functional assay
row,Binder,TOPFLASH % Wnt Maxima
1,"CT0003 (Table 5: FZD Diabody-Fc-LRP scFv; paratopes 5016; 2539, 2542) (bispecific antibody) chain 1: MNLLLILTFVAAAVAEFEVQLVESGGGLVQPGGSLRLSCAASGFNISSYYIHWVRQAPGKGLEWVASIYSSYGYTSYADSVKGRFTISADTSKNTAYLQMNSLRAEDTAVYYCARTVRGSKKPYFSGWAMDYWGQGTLVTVSSGGGGSDIQMTQSPSSLSASVGDRVTITCRASQSVSSAVAWYQQKPGKAPKLLIYSASSLYSGVPSRFSGSRSGTDFTLTISSLQPEDFATYYCQQYSWGPFTFGQGTKVEIKLEDKTHTKVEPKSSDKTHNCPPCPAPELLGGPSVFLFPPKPKDTLMISRTPEVTCVVVDVSHEDPEVKFNWYVDGVEVHNAKTKPREEQYNSTYRVVSVLTVLHQDWLNGKEYKCKVSNKALPAPIEKTISKAKGQPREPQVYTLPPIRELMTSNQVSLSCAVKGFYPSDIAVEWESNGQPENNYKTTPPVLDSDGSFFLVSKLTVDKSRWQQGNVFSCSVMHEALHNHYTQKSLSLSPGKSGSETPGTSESATPESGGGEVQLVESGGGLVQPGGSLRLSCAASGFNIHSSSIHWVRQAPGKGLEWVAATYSSFGSITYADSVKGRFTISADTSKNTAYLQMNSLRAEDTAVYYCARYHHPFGYALDYWGQGTLVTVSSGTTAASGSSGGSSSGADIQMTQSPSSLSASVGDRVTITCRASQSVSSAVAWYQQKPGKAPKLLIYSASSLYSGVPSRFSGSRSGTDFTLTISSLQPEDFATYYCQQGVYLFTFGQGTKVEIK chain 2: MNLLLILTFVAAAVAEFEVQLVESGGGLVQPGGSLRLSCAASGFNISYSSIHWVRQAPGKGLEWVAYISSYYGYTYYADSVKGRFTISADTSKNTAYLQMNSLRAEDTAVYYCARAHYFPWAGAMDYWGQGTLVTVSSGGGGDIQMTQSPSSLSASVGDRVTITCRASQSVSSAVAWYQQKPGKAPKLLIYSASSLYSGVPSRFSGSRSGTDFTLTISSLQPEDFATYYCQQYYWPITFGQGTKVEIKLEDKTHTKVEPKTSDKTHTCPPCPAPELLGGPSVFLFPPKPKDTLMISRTPEVTCVVVDVSHEDPEVKFNWYVDGVEVHNAKTKPREEQYNSTYRVVSVLTVLHQDWLNGKEYKCKVSNKALPAPIEKTISKAKGQPREPMVFDLPPSREEMTKNQVSLWCMVKGFYPSDIAVEWESNGQPENNYKTTPPVLDSDGSFFLYSKLTVDKSRWQQGNVFSCSVMHEALHNHYTQKSLSLSPGKSGSETPGTSESATPESGGGEVQLVESGGGLVQPGGSLRLSCAASGFNIHSSSIHWVRQAPGKGLEWVAATYSSFGSITYADSVKGRFTISADTSKNTAYLQMNSLRAEDTAVYYCARYHHPFGYALDYWGQGTLVTVSSGTTAASGSSGGSSSGADIQMTQSPSSLSASVGDRVTITCRASQSVSSAVAWYQQKPGKAPKLLIYSASSLYSGVPSRFSGSRSGTDFTLTISSLQPEDFATYYCQQGVYLFTFGQGTKVEIK",42 % Wnt Maxima
2,CM0299 (FZD IgG-LRP Diabody; paratopes 5016; 2539) (bispecific antibody) heavy: not shown light: DIQMTQSPSSLSASVGDRVTITCRASQSVSSAVAWYQQKPGKAPKLLIYSASSLYSGVPSRFSGSRSGTDFTLTISSLQPEDFATYYCQQGVYLFTFGQGTKVEIKRTVAAPSVFIFPPSDEQLKSGTASVVCLLNNFYPREAKVQWKVDNALQSGNSQESVTEQDSKDSTYSLSSTLTLSKADYEKHKVYACEVTHQGLSSPVTKSFNRGEC,14 % Wnt Maxima
3,CM0300 (FZD IgG-LRP scFv; paratopes 5016; 2539) (bispecific antibody) heavy: not shown light: DIQMTQSPSSLSASVGDRVTITCRASQSVSSAVAWYQQKPGKAPKLLIYSASSLYSGVPSRFSGSRSGTDFTLTISSLQPEDFATYYCQQGVYLFTFGQGTKVEIKRTVAAPSVFIFPPSDEQLKSGTASVVCLLNNFYPREAKVQWKVDNALQSGNSQESVTEQDSKDSTYSLSSTLTLSKADYEKHKVYACEVTHQGLSSPVTKSFNRGEC,5 % Wnt Maxima
4,CM0301 (FZD IgG-LRP scFv; paratopes 5016; 2542) (bispecific antibody) heavy: not shown light: DIQMTQSPSSLSASVGDRVTITCRASQSVSSAVAWYQQKPGKAPKLLIYSASSLYSGVPSRFSGSRSGTDFTLTISSLQPEDFATYYCQQGVYLFTFGQGTKVEIKRTVAAPSVFIFPPSDEQLKSGTASVVCLLNNFYPREAKVQWKVDNALQSGNSQESVTEQDSKDSTYSLSSTLTLSKADYEKHKVYACEVTHQGLSSPVTKSFNRGEC,1 % Wnt Maxima

# Biological target: T1, LRP6 (low-density lipoprotein …)
# Test: cell-based or functional assay
# Remark: another data set of the same source
row,Binder,TOPFLASH Maximal Signal (% Wnt3a maxima)
1,CH3 (Dia-CH3-Dia; paratopes 5019; 2539) (bispecific antibody) MNLLLILTFVAAAVAEFEVQLVESGGGLVQPGGSLRLSCAASGFNIGSSSIHWVRQAPGKGLEWVASIYSAFASTSYADSVKGRFTISADTSKNTAYLQMNSLRAEDTAVYYCARYHFPFGFALDYWGQGTLVTVSSGGGGSDIQMTQSPSSLSASVGDRVTITCRASQSVSSAVAWYQQKPGKAPKLLIYSASSLYSGVPSRFSGSRSGTDFTLTISSLQPEDFATYYCQQGVYLFTFGQGTKVEIKDKTHTKVEPKTSDKTHTCPPCPGQPREPQVYTLPPSREEMTKNQVSLTCLVKGFYPSDIAVEWESNGQPENNYKTTPPVLDSDGSFFLYSKLTVDKSRWQQGNVFSCSVMHEALHNHYTQKSLSLSPGKGTTAASGSSGGSSSGAGRTEVQLVESGGGLVQPGGSLRLSCAASGFNISYSSIHWVRQAPGKGLEWVAYISSYYGYTYYADSVKGRFTISADTSKNTAYLQMNSLRAEDTAVYYCARAHYFPWAGAMDYWGQGTLVTVSSGGGGSDIQMTQSPSSLSASVGDRVTITCRASQSVSSAVAWYQQKPGKAPKLLIYSASSLYSGVPSRFSGSRSGTDFTLTISSLQPEDFATYYCQQYSWGPFTFGQGTKVEIK,22 % Wnt3a maxima
2,Fab-Dia (paratopes 5016; 2540/2542) (bispecific antibody) heavy: EVQLVESGGGLVQPGGSLRLSCAASGFNIHSSSIHWVRQAPGKGLEWVAATYSSFGSITYADSVKGRFTISADTSKNTAYLQMNSLRAEDTAVYYCARYHHPFGYALDYWGQGTLVTVSSASTKGPSVFPLAPSSKSTSGGTAALGCLVKDYFPEPVTVSWNSGALTSGVHTFPAVLQSSGLYSLSSVVTVPSSSLGTQTYICNVNHKPSNTKVDKKVEPKSCDKTHTGGSGGEVQLVESGGGLVQPGGSLRLSCAASGFTISYSSIHWVRQAPGKGLEWVASISPYYGYTYYADSVKGRFTISADTSKNTAYLQMNSLRAEDTAVYYCARSSYFPWFSAMDYWGQGTLVTVSSGGGGSDIQMTQSPSSLSASVGDRVTITCRASQSVSSAVAWYQQKPGKAPKLLIYSASSLYSGVPSRFSGSRSGTDFTLTISSLQPEDFATYYCQQYYWPITFGQGTKVEIK light: DIQMTQSPSSLSASVGDRVTITCRASQSVSSAVAWYQQKPGKAPKLLIYSASSLYSGVPSRFSGSRSGTDFTLTISSLQPEDFATYYCQQGVYLFTFGQGTKVEIKRTVAAPSVFIFPPSDEQLKSGTASVVCLLNNFYPREAKVQWKVDNALQSGNSQESVTEQDSKDSTYSLSSTLTLSKADYEKHKVYACEVTHQGLSSPVTKSFNRGECGGGGSEVQLVESGGGLVQPGGSLRLSCAASGFTISSYYIHWVRQAPGKGLEWVASIYSSYGYTSYADSVKGRFTISADTSKNTAYLQMNSLRAEDTAVYYCARTVRGSKKPYFSGWAMDYWGQGTLVTVSSGGGGSDIQMTQSPSSLSASVGDRVTITCRASQSVSSAVAWYQQKPGKAPKLLIYSASSLYSGVPSRFSGSRSGTDFTLTISSLQPEDFATYYCQQYYFLITFGQGTKVEIK,42 % Wnt3a maxima

# — patent US20260250398A1 (ANTLERA THERAPEUTICS, published 2026)
